# Measurements reported in patent US20240368239A1, “Novel bispecific protein and use thereof” (SL METAGEN, priority 2020, published 2024).
# Entries after “also recorded” stand apart in the source; their conditions may differ.
# Assays:
# [1] = In vivo pharmacokinetics profile after subcutaneous administration (GLP-1-Fc ELISA and GLP-2-Fc ELISA); design: species or system male SD (Sprague Dawley) rats; settings: for AUClast / Cmax / Half-life / Tmax: 1 mg/kg SC
# Method: First, each protein was administered to 3 male SD (Sprague Dawley) rats per group at a dose of 1 mg/kg by subcutaneous (SC) route. Before injection and after 0.5, 1, 5, 10, 24, 48, 72, 120, and 168 hours after the injection, blood was collected and stored at room temperature for 30 minutes to aggregate. After centrifuging the aggregated blood at 3,000 rpm for 10 minutes, serum of each sample was collected and stored in a cryogenic freezer. Analyses were performed by an assay designed to specifically detect the GLP-1 site and Fc in the administered protein (GLP-1-Fc ELISA) and an assay designed to specifically detect the GLP-2 site and Fc in the administered protein (GLP-2-Fc ELISA). Specifically, a method of loading a biological sample on a plate coated with an antibody that binds to mouse-derived human immunoglobulin G4 (IgG4) to detect the target protein using a biotinylated anti-GLP-1 antibody (GLP-1-Fc ELISA), and a method of loading a biological sample on a plate coated with a monoclonal antibody that specifically reacts with GLP-2, to detect the target protein using a secondary antibody having HRP conjugated to mouse-derived human immunoglobulin G4 (IgG4) (GLP-2-Fc ELISA) were used. The obtained and prepared serum samples were loaded with appropriate dilutions to be analyzed at a position on a straight line of the standard curve.
# [2] = system: B6 normal mice; experiment: Small intestine changes and nutrient absorption changes (GLP-2-2G, GLP-2-Fc homodimer, MG12-5); type: in vivo
# Method: In order to observe changes in the small intestine and nutrient absorption capacity following substance administration, an experiment was conducted in B6 normal mice. PBS and GLP-2-2G were administered twice a day, and GLP-2-Fc homodimer and MG12-5 were administered once every three days for 2 weeks. For the GLP-2-Fc homodimer and MG12-5 groups, PBS was administered twice a day, as was in the other administration groups, during the period when no drug was administered. Body weight and dietary intake were monitored at 3-day intervals, and feces were collected before administration, on days 5-6 after administration, and on days 11-12 after administration, and calorimetry was performed using a bomb calorimeter, and also, feed ingested during this period was also subjected to calorimetry through the same analysis. The energy absorption rate was defined as a value obtained by subtracting the calorific value of feces from the caloric value of ingested feed. On day 14 following drug administration, the experimental animals were sacrificed and the small intestine (pylorus ileum) was weighed.
# [3] = system: Balb/c-nude mice; experiment: PET-MRI tissue distribution of Zr89-labelled proteins; type: in vivo; settings: Zr89 label, SC
# Source text: Next, the present inventors performed an experiment in Balb/c-nude mice in order to observe the distribution in each tissue organ following the administration of a substance. Zr^89 was used as a radiotracer for tracking the distribution after administration of each substance. Each substance to be administered was labeled with Zr^89 as a reaction condition and a chelator selected through a preliminary test. The labeled Zr^89-protein was purified using a PD-10 column, and Zr^89 labeling efficiency and purity were confirmed using Radio TLC and SEC-HPLC. The labeling efficiency of the Zr^89-protein of 90% or more and the purity of 80% or more were determined to be appropriate, and the labeled protein was administered subcutaneously at 0.2 mCi/0.2 cc. Each administration substance was administered to three animals and static images for 20 minutes were obtained using PET-MRI at 1 hour, 6 hours, 24 hours, 48 hours, and 168 hours after injection. Through image analysis, the distribution of drugs as a function of time in the liver, small intestine, and large intestine was expressed as SUV (Standardized Uptake Value) and comparatively analyzed.
# [4] = system: B6 normal mice; experiment: MG12 vs. GLP-1 and GLP-2 combo: body weight and small intestine changes; type: in vivo; settings: 12 days SC
# Method: In particular, in order to observe changes in body weight and the small intestine following the substance administration, an experiment was conducted in B6 normal mice. […] After starting drug administration twice a week during the test period, feed intake was measured and expressed as cumulative feed intake, and pre-autopsy body weight was measured to calculate the body weight vs. feed intake. After the autopsy, the weight of the small intestine, and mucosal depth and villus height of the duodenum and the jejunum were measured. More specifically, after the autopsy, the entire gastrointestinal tract of the mouse was separated, the mesentery and the pancreas were excised, and the area where the ileum and the cecum meet was cut to separate the small intestine and the large intestine.
# [5] = system: C57BL/6J male mice on CD-HFD; experiment: Choline-deficient high-fat diet (CD-HFD) metabolic syndrome model; type: in vivo
# Source text: To this end, in particular, with respect to experimental animals induced with fatty liver and steatohepatitis through high-fat diet, as shown in FIG. 13a and Table 8, the present inventors performed a choline-deficient high-fat diet ([…]) for 12 weeks using 8-week-old C57BL/6J male mice, and then 20 nmol/kg of MG12-5, MG12-8, and each of 10 nmol/kg of GLP-1 and GLP-2 combination (combo) were administrated twice subcutaneously twice to experimental animals respectively, along with a CD-HFD diet for 4 weeks, and various serological and histological analyses were performed.
# First, the present inventors recorded changes in body weight and food intake of experimental animals during the experiment period.
# As described above, after 16 weeks on CD-HFD, mice treated with drugs (MG12-5, MG12-8, and GLP-1 and GLP-2 combo) twice a week for 4 weeks, after food restriction 12 hours, were intraperitoneally administered with glucose at a dose of 2 g/kg, and changes in blood glucose level were measured at a time interval for a total of 3 hours. […] FIG. 14b is a graph showing the area under the curve related to changes in blood glucose level.
# The present inventors sacrificed and extracted liver tissues from a mouse having completed the drug administration experiment as described above, and captured photographs thereof to examine changes in the size and color of the liver tissues, and measured the weight of the extracted liver tissues as well as ALT blood level, which is a measure of hepatotoxicity level.
# [6] = 20 nmol/kg SC, 4 weeks with CD-HFD
# [7] = excised liver at end of experiment
molecule,measurement,setting,value
"MG12-5: Knob/hole Fc heterodimer: GLP-1/Exendin 4 hybrid (SEQ 5), unmodified linker, first fusion protein SEQ 28; GLP-2 (SEQ 17), second fusion protein SEQ 34 (protein) chain 1: HGEGTFTSDVSSYLEGQAAKEFIAWLVKGGPSSGAPPPSGGGGSGGGGSGGGGSEKEKEEQEERTHTCPPCPSHTQPLGVFLFPPKPKDQLMISRTPEVTCVVVDVSQEDPEVQFNWYVDGVEVHNAKTKPREEQFNSTYRVVSVLTVLHQDWLNGKEYKCKVSNKGLPSSIEKTISKAKGQPREPQVYTLPPCQEEMTKNQVSLWCLVKGFYPSDIAVEWESNGQPENNYKTTPPVLDSDGSFFLYSRLTVDKSRWQEGNVFSCSVLHEALHNHYTQKSLSLSLGK chain 2: HGDGSFSDEMNTILDNLAARDFINWLIQTKITDGGGGSGGGGSGGGGSEKEKEEQEERTHTCPPCPSHTQPLGVFLFPPKPKDQLMISRTPEVTCVVVDVSQEDPEVQFNWYVDGVEVHNAKTKPREEQFNSTYRVVSVLTVLHQDWLNGKEYKCKVSNKGLPSSIEKTISKAKGQPREPQVCTLPPSQEEMTKNQVSLSCAVKGFYPSDIAVEWESNGQPENNYKTTPPVLDSDGSFFLVSRLTVDKSRWQEGNVFSCSVLHEALHNHYTQKSLSLSLGK","terminal half-life, rank among MG12-1, 3, 4 and 5",[1]; GLP-2-Fc ELISA,shortest half-life
same,"Cmax, rank among MG12-1, 3, 4 and 5",[1]; both ELISA methods,highest value
same,AUClast,"[1]; rat, GLP-1-Fc ELISA (Table 5)",26.0596 ± 3.0285 µg·h/mL
same,Cmax,"[1]; rat, GLP-1-Fc ELISA (Table 5)",1036.2 ± 59.5 ng/mL
same,Half-life,"[1]; rat, GLP-1-Fc ELISA (Table 5)",18.4 ± 6.2 h
same,Tmax,"[1]; rat, GLP-1-Fc ELISA (Table 5)",10 h
same,AUClast,"[1]; rat, GLP-2-Fc ELISA (Table 6)",188.7416 ± 7.8705 µg·h/mL
same,Cmax,"[1]; rat, GLP-2-Fc ELISA (Table 6)",3201.3 ± 95.6 ng/mL
same,Half-life,"[1]; rat, GLP-2-Fc ELISA (Table 6)",30.6 ± 2.1 h
same,Tmax,"[1]; rat, GLP-2-Fc ELISA (Table 6)",24.0 ± 0.0 h
same,"AUClast, rank among MG12-1, 3, 4 and 5","[1]; rat, SC",highest
same,body weight,[2]; 2 weeks dosing,an increase significant compared to the negative control group; also recorded: statistically significant body weight increase compared to other drug administered groups
same,energy absorption rate,"[2]; Week 1, after the second dose",statistically significant increase compared to the vehicle-administered group
same,energy absorption rate,"[2]; Week 2, after the fourth dose",an increase even more significant than GLP-2-Fc homo
same,small intestine weight,"[2]; day 14, 2 weeks dosing",most notable increase in the small intestine weight; also recorded: statistically significant increase compared to the other two drug administered group; also recorded: superior effect of increasing small intestine weight to GLP-2-2G and GLP-2-Fc homodimer
same,distribution to the liver (SUV),[3],reduced or showed no difference compared to Fc
same,distribution to the small intestine and large intestine (SUV),[3],significantly high compared to that of GLP-1-Fc homodimer and GLP-2-Fc homodimer
same,body weight increase vs. feed intake,[4]; normalized to cumulative feed intake,statistically significant body weight increase compared to the co-administered group
same,small intestine weight,"[4]; Ex-4 10 nmol/kg, others 33.3 nmol/kg",statistically significant increase in the small intestine compared to the co-administered group
same,body weight (relative change),[5]; [6],greater relative body weight reduction effect
same,feed intake,[5]; [6],lower feed intake
same,blood ALT level,[5]; after 16 weeks of CD-HFD diet,decrease in ALT level to a level similar to that of the normal diet group
same,liver color,[5]; [7],liver color similar to that of the normal diet group
same,liver weight,[5]; [7],reduced
same,"blood glucose level, intraperitoneal glucose tolerance test","[5]; glucose 2 g/kg i.p. after 12 hours food restriction, 3 hours",statistically significant decrease in blood glucose level
same,area under the curve of the change in blood glucose level,[5]; intraperitoneal glucose tolerance test,decreased two times or more
